Assay results published in patent US20240343800A1 (Merck KGaA, published 2024).

Assays:
human ROR1 (on cells) [1] = target: T1, human ROR1 (on cells) (human, UniProt Q01973 30-937); test: cell-based or functional assay
[2] = target: T2, cynomolgus CD3 (on cynomolgus pan-T cells) (cynomolgus, UniProt Q95LI5 22-198); test: flow cytometry, cynomolgus pan-T cells
T2 construct: whole, on cells
Description: (§1) After washing twice with 200 μL of phosphate buffered saline (PBS) by centrifugation at 500×g for 5 minutes at room temperature, the cells were resuspended in 100 μL of Live/Dead fixable green working buffer (ThermoFisher Scientific, Cat No: L23101; one vial of Live/Dead fixable green powder was dissolved into 50 μL of DMSO and 1 μL of dissolved Live/Dead fixable green was added to 1 mL of PBS to prepare the working buffer). After 15-minutes of incubation at room temperature, the cells were washed twice with 200 μL of PBS by centrifugation at 500×g for 5 minutes at room temperature and resuspended in […] of 10% goat serum in BD staining buffer (BD Biosciences, Cat No: 554657). […] The plates were then covered with foil to avoid direct light and incubated for 60 minutes at 4° C. […] After incubating for 30 minutes at 4° C., the cells were washed twice with 200 μL of PBS by centrifugation at 500×g for 5 minutes at room temperature and resuspended into 100 μL of fixation buffer (BioLegend, Cat No: 420801). The samples were then analyzed on a flow cytometer for binding signal using FlowJo software. ROR and CD3 binding EC₅₀s (concentration vs mean fluorescence intensity (MFI)) for reference molecules and test bispecific TCEs were obtained using 4-parameter non-linear regression curve fitting in GraphPad Prism.

[3] = target: T3, human CD3 (on Jurkat T cells or human CD8+ T cells) (human, UniProt P07766 23-207; P09693 23-182; P04234 22-171; P20963 22-164); test: flow cytometry, Jurkat T cells
T3 construct: Entries are printed with signal peptides; also called huCD3; CD3ε
T3 sequence (P07766 23-207 limits assumed, chain 1 of 4): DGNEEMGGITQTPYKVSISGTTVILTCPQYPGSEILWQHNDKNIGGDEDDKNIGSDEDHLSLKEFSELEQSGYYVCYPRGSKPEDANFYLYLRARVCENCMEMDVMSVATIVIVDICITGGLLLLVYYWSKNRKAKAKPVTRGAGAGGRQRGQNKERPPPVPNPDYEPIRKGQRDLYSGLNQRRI
T3 sequence (P09693 23-182 limits assumed, chain 2 of 4): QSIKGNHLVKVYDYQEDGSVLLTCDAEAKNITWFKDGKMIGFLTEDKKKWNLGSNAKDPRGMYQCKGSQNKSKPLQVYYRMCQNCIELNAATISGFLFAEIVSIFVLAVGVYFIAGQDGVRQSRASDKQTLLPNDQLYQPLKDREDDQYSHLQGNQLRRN
T3 sequence (P04234 22-171 limits assumed, chain 3 of 4): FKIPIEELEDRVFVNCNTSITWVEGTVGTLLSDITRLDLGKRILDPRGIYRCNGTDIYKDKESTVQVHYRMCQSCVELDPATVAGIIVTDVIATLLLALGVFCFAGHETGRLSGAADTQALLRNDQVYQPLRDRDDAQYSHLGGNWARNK
T3 sequence (P20963 22-164 limits assumed, chain 4 of 4): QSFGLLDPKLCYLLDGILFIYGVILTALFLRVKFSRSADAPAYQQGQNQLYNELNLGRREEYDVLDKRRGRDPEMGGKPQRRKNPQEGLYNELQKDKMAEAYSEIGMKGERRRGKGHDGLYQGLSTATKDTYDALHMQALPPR
Description: as §1

human ROR1 (on cells) [4] = target: T1, human ROR1 (on cells); test: cell-based or functional assay; remark: listed apart in the source
human ROR1 (on cells) [5] = target: T1, human ROR1 (on cells); test: cell-based or functional assay; remark: listed apart in the source
[6] = target: T4, mouse ROR1 (on 4T1 cells engineered to overexpress it) (mouse, UniProt Q9Z139 30-937); test: cell-based or functional assay
[7] = target: T4, mouse ROR1 (on 4T1 cells engineered to …); test: flow cytometry, 4T1 cells overexpressing mouse ROR1
human ROR1 (on cells) [8] = target: T1, human ROR1 (on cells); test: cell-based or functional assay; remark: listed apart in the source
human ROR1 (on cells) [9] = target: T1, human ROR1 (on cells); test: cell-based or functional assay; remark: listed apart in the source
human ROR1 (on cells) [10] = target: T1, human ROR1 (on cells); test: flow cytometry, MDA-MB-231 cells
Description: as §1

human ROR1 (on cells) [11] = target: T1, human ROR1 (on cells); test: cell-based or functional assay; remark: listed apart in the source
[12] = target: T4, mouse ROR1 (on 4T1 cells engineered to …); test: cell-based or functional assay; remark: listed apart in the source
human ROR1 (on cells) [13] = target: T1, human ROR1 (on cells); test: cell-based or functional assay; remark: listed apart in the source
human ROR1 (on cells) [14] = target: T1, human ROR1 (on cells); test: flow cytometry, 4T1 cells overexpressing human ROR1
human ROR1 (on cells) [15] = target: T1, human ROR1 (on cells); test: cell-based or functional assay; remark: listed apart in the source
[16] = target: T3, human CD3 (on Jurkat T cells or human …); test: flow cytometry; reference: 69A02 and 82H02 TCEs in Format 1A
Description: (§2) The plates were then covered with foil to avoid direct light and incubated for 60 minutes at 4° C. […] After incubating for 30 minutes at 4° C., the cells were washed twice with 200 μL of PBS by centrifugation at 500×g for 5 minutes at room temperature and resuspended into 100 μL of fixation buffer (BioLegend, Cat No: 420801). The samples were then analyzed on a flow cytometer for binding signal using FlowJo software. ROR and CD3 binding EC₅₀s (concentration vs mean fluorescence intensity (MFI)) for reference molecules and test bispecific TCEs were obtained using 4-parameter non-linear regression curve fitting in GraphPad Prism.

[17] = target: T3, human CD3 (on Jurkat T cells or human …); test: flow cytometry; reference: 69A02 and 82H02 TCEs in Format 1B
Description: as §2

[18] = target: T3, human CD3 (on Jurkat T cells or human …); test: flow cytometry, human CD8+ T cells; reference: 82H02 TCE #1 and #3
Description: as §2, with “After 15-minutes of incubation at room temperature, the cells were washed twice with 200 μL of PBS by centrifugation at 500×g for 5 minutes at room temperature and resuspended in […] of 10% goat serum in BD staining buffer (BD Biosciences, Cat No: 554657). […] The plates” for “The plates”

[19] = target: T3, human CD3 (on Jurkat T cells or human …); test: flow cytometry, human CD8+ T cells
Description: as §2, with “After 15-minutes of incubation at room temperature, the cells were washed twice with 200 μL of PBS by centrifugation at 500×g for 5 minutes at room temperature and resuspended in […] of 10% goat serum in BD staining buffer (BD Biosciences, Cat No: 554657). […] The plates” for “The plates”

[20] = target: T5, chimeric CD3ε of human CD3 knock-in C57BL/6 mice (ectodomain of human CD3, transmembrane and cytosolic … (human; mouse, UniProt P07766 23-126; P22646 109-189); test: flow cytometry, T cells of huCD3 knock-in C57BL/6 mice
T5 construct: extracellular domain;domain: transmembrane and cytosolic domains; On T cells isolated from the knock-in mice; also called human/mouse chimeric CD3; huCD3 knock-in
T5 sequence (P07766 other isoform, or with tags, fused parts or gaps mutant): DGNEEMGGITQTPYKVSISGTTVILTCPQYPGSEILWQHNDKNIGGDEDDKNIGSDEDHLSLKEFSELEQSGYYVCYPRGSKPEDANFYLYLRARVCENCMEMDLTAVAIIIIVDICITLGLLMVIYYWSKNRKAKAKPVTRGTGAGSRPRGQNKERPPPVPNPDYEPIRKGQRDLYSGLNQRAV
Description: as §2

T2 sequence (Q95LI5 22-198): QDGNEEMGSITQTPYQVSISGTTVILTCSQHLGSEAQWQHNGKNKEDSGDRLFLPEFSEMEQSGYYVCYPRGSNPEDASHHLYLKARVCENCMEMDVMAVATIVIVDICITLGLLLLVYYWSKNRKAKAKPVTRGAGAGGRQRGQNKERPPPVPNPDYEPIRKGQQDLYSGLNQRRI

B1: bispecific TCE 82H02 in Format 1B (bispecific antibody)
chain 1: EIVLTQSPATLSLSPGERATLSCRASQSVSSYLAWYQQKPGQAPRLLIYDASNRATGIPARFSGSGSGTDFTLTISSLEPEDFAVYYCQQRSNWPPCTFGQGTRLEIKGGGGSGGGGSGGGGSGGGGSEVQLLESGGGLVQPGGSLRLSCAASGFTFTSYAMSWVRQAPGKGLEWVSTISGSGGGTYYTDSVKGRFTISRDNSKNTLYLQMNSLRAEDTAVYYCAQGSSIFDYWGQGTLVTVSSEPKSSDKTHTCPPCPAPEAAGGPSVFLFPPKPKDTLMISRTPEVTCVVVDVSHEDPEVKFNWYVDGVEVHNAKTKPREEQYNSTYRVVSVLTVLHQDWLNGKEYKCKVSNKALGAPIEKTISKAKGQPFRPEVHLLPPSREEMTKNQVSLTCLARGFYPKDIAVEWESNGQPENNYKTTPSRQEPSQGTTTFAVTSKLTVDKSRWQQGNVFSCSVMHEALHNHYTQKTISLSPGKGGGGSGGGGSGGGGSGGGGSEVQLVESGGGLVQPGGSLRLSCAASGFTFNTYAMNWVRQAPGKGLEWVARIRSKYNNYATYYADSVKDRFTISRDDSKNTLYLQMNSLRAEDTAVYYCVRHGNFGNSYVSWFAYWGQGTMVTVSSASTKGPSVFPLAPSSKSTSGGTAALGCLVKDYFPEPVTVSWNSGALTSGVHTFPAVLQSSGLYSLSSVVTVPSSSLGTQTYICNVNHKPSNTKVDKKVEPKSC
chain 2: EIVLTQSPATLSLSPGERATLSCRASQSVSSYLAWYQQKPGQAPRLLIYDASNRATGIPARFSGSGSGTDFTLTISSLEPEDFAVYYCQQRSNWPPCTFGQGTRLEIKGGGGSGGGGSGGGGSGGGGSEVQLLESGGGLVQPGGSLRLSCAASGFTFTSYAMSWVRQAPGKGLEWVSTISGSGGGTYYTDSVKGRFTISRDNSKNTLYLQMNSLRAEDTAVYYCAQGSSIFDYWGQGTLVTVSSEPKSSDKTHTCPPCPAPEAAGGPSVFLFPPKPKDTLMISRTPEVTCVVVDVSHEDPEVKFNWYVDGVEVHNAKTKPREEQYNSTYRVVSVLTVLHQDWLNGKEYKCKVSNKALGAPIEKTISKAKGQPREPQVYTLPPPSEELALNELVTLTCLVKGFYPSDIAVEWLQGSQELPREKYLTWAPVLDSDGSFFLYSILRVAAEDWKKGDTFSCSVMHEALHNHYTQKSLDRSPGK
chain 3: QAVVTQEPSLTVSPGGTVTLTCRSSTGAVTTSNYANWVQQKPGQAPRGLIGGTNKRAPGTPARFSGSLLGGKAALTLSGVQPEDEAEYYCALWYSNLWVFGGGTKLTVLGQPKAAPSVTLFPPSSEELQANKATLVCLISDFYPGAVTVAWKADSSPVKAGVETTTPSKQSNNKYAASSYLSLTPEQWKSHRSYSCQVTHEGSTVEKTVAPTECS
Human ROR1 (on cells) [1]
  IFNγ release EC50, PBMCs + ROR1+ MDA-MB-231 cells: 7.12 nM
[2]
  EC50: 34.9 nM
[3]
  EC50: 67.3 nM
Human ROR1 (on cells) [4]
  TDCC EC50, PBMCs + ROR1+ MDA-MB-231 cells: 0.0766 nM
Human ROR1 (on cells) [5]
  TDCC EC50, hCD3 KI splenocytes: hROR1+ 4T1 cells: 0.185 nM
[6]
  TDCC EC50, hCD3 KI splenocytes: mROR1+ 4T1 cells: 0.0215 nM
[7]
  EC50: 2.01 nM
Human ROR1 (on cells) [8]
  IFNγ release EC50, cynomolgus CD8+ T cells + ROR1+ MDA-MB-231: 0.191 nM
  IFNγ release EC50, human CD8+ T cells + ROR1+ MDA-MB-231: 0.104 nM
Human ROR1 (on cells) [9]
  EC50 of target cell killing (TDCC), human CD8+ T cells + ROR1+ MDA-MB-231: 0.0581 nM
Human ROR1 (on cells) [10]
  EC50: 2.23 nM
Human ROR1 (on cells) [11]
  IFNγ release EC50, hCD3 KI splenocytes: hROR1+ 4T1 cells: > 0.3 nM
[12]
  IFNγ release EC50, hCD3 KI splenocytes: mROR1+ 4T1 cells: 0.14 nM
Human ROR1 (on cells) [13]
  TDCC EC50, cynomolgus CD8+ T cells + ROR1+ MDA-MB-231: 0.0548 nM
  TDCC EC50, human CD8+ T cells + ROR1+ MDA-MB-231: 0.0237 nM
Human ROR1 (on cells) [14]
  EC50: 0.7 nM
Human ROR1 (on cells) [15]
  EC50 of IFNγ release, human CD8+ T cells + ROR1+ MDA-MB-231: 0.0889 nM

B2: bispecific reference T cell-binder (bispecific antibody)
light: ELVLTQSPSVSAALGSPAKITCTLSSAHKTDTIDWYQQLQGEAPRYLMQVQSDGSYTKRPGVPDRFSGSSSGADRYLIIPSVQADDEADYYCGADYIGGYVFGGGTQLTVLGQPKAAPSVTLFPPSSEELQANKATLVCLISDFYPGAVTVAWKADSSPVKAGVETTTPSKQSNNKYAASSYLSLTPEQWKSHKSYSCQVTHEGSTVEKTVAPTECS
heavy 1: not shown
heavy 2: QEQLVESGGRLVTPGGSLTLSCKASGFDFSAYYMSWVRQAPGKGLEWIATIYPSSGKTYYATWVNGRFTISSDNAQNTVDLQMNSLTAADRATYFCARDSYADDGALFNIWGPGTLVTISSASTKGPSVFPLAPSSKSTSGGTAALGCLVKDYFPEPVTVSWNSGALTSGVHTFPAVLQSSGLYSLSSVVTVPSSSLGTQTYICNVNHKPSNTKVDKKVEPKSCDKTHTCPPCPAPEAAGGPSVFLFPPKPKDTLMISRTPEVTCVVVDVSHEDPEVKFNWYVDGVEVHNAKTKPREEQYNSTYRVVSVLTVLHQDWLNGKEYKCKVSNKALGAPIEKTISKAKGQPREPQVCTLPPSRDELTKNQVSLSCAVKGFYPSDIAVEWESNGQPENNYKTTPPVLDSDGSFFLVSKLTVDKSRWQQGNVFSCSVMHEALHNHYTQKSLSLSPGK
chain: QAVVTQEPSLTVSPGGTVTLTCGSSTGAVTTSNYANWVQEKPGQAFRGLIGGTNKRAPGTPARFSGSLLGGKAALTLSGAQPEDEAEYYCALWYSNLWVFGGGTKLTVLSSASTKGPSVFPLAPSSKSTSGGTAALGCLVKDYFPEPVTVSWNSGALTSGVHTFPAVLQSSGLYSLSSVVTVPSSSLGTQTYICNVNHKPSNTKVDKKVEPKSC
notes: ROR1 x CD3 bispecific of four polypeptides
[16]
  fold lower apparent binding affinity: ~15 fold
[17]
  fold lower apparent binding affinity: ~4 fold
[3]
  EC50: 157 nM
[18]
  fold lower affinity: ~100 fold
[19]
  EC50: 266 nM
[20]
  EC50: 259 nM
